Laboratory results taken from patent US20250041416A1 (Innovent, published 2025).

T1: Human BCMA on cells (human, UniProt Q02223 1-184)
T1 construct: whole, on cells; also called hBCMA-CHO GS; Human BCMA CHO-S
T1 sequence (looked up): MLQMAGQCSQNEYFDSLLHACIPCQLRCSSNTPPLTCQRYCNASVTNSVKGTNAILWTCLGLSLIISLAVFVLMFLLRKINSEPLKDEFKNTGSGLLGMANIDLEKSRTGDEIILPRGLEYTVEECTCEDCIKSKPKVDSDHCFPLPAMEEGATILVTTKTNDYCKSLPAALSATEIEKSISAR

T2: Human BCMA-IHM (human, UniProt Q02223 1-54, limits assumed)
T2 construct: any tag or fusion partner is unknown
T2 sequence (looked up): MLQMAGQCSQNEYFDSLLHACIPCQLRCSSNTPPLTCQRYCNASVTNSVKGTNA

B1: ADI-38484 (IgG as tested in Table 2) (antibody, V domains shown)
VH: QVQLVQSGAEVKKPGSSVKVSCKASGGTFSNDVISWVRQAPGQGLEWMGVIIPIFGIANYAQKFQGRVTITADESTSTAYMELSSLRSEDTAVYYCARGRGYYSSWLHDIWGQGTMVTVSS
VL: DIQMTQSPSSLSASVGDRVTITCQASQDITNYLNWYQQKPGKAPKLLIYDASNLETGVPSRFSGSGSGTDFTFTISSLQPEDIATYYCQQAFDLITFGGGTKVEIK
B2: ADI-38484 Fab (Fab, V domains shown)
VH: QVQLVQSGAEVKKPGSSVKVSCKASGGTFSNDVISWVRQAPGQGLEWMGVIIPIFGIANYAQKFQGRVTITADESTSTAYMELSSLRSEDTAVYYCARGRGYYSSWLHDIWGQGTMVTVSS
VL: DIQMTQSPSSLSASVGDRVTITCQASQDITNYLNWYQQKPGKAPKLLIYDASNLETGVPSRFSGSGSGTDFTFTISSLQPEDIATYYCQQAFDLITFGGGTKVEIK
B3: ADI-34857 (antibody, V domains shown)
VH: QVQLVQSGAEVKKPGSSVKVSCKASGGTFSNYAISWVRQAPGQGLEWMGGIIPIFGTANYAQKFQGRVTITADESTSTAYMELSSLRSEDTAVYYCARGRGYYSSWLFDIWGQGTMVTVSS
VL: DIQMTQSPSSLSASVGDRVTITCQASQDITNYLNWYQQKPGKAPKLLIYDASNLETGVPSRFSGSGSGTDFTFTISSLQPEDIATYYCQQAFDLITFGGGTKVEIK
notes: also called BCMA parent antibody ADI-34857
B4: ADI-38497 Fab (Fab, V domains shown)
VH: QLQLQESGPGLVKPSETLSLTCTVSGGSIVSSSYYWTWIRQPPGKGLEWIGSISIAGSTYYNPSLKSRVTISVDTSKNQFSLKLSSVTAADTAVYYCARDRGDQILDVWSQGTMVTVSS
VL: DIQMTQSPSSLSASVGDRVTITCRASQSISRYLNWYQQKPGKAPKLLIYAASSLQSGVPSRFSGSGSGTDFTLTISSLQPEDFATYYCQQKYFDITFGGGTKVEIK
B5: ADI-34861 (antibody, V domains shown)
VH: QLQLQESGPGLVKPSETLSLTCTVSGGSISSSSYYWGWIRQPPGKGLEWIGSISYSGSTYYNPSLKSRVTISVDTSKNQFSLKLSSVTAADTAVYYCARDRGDTILDVWGQGTMVTVSS
VL: DIQMTQSPSSLSASVGDRVTITCRASQSISRYLNWYQQKPGKAPKLLIYAASSLQSGVPSRFSGSGSGTDFTLTISSLQPEDFATYYCQQKYFDITFGGGTKVEIK
notes: also called BCMA parent antibody ADI-34861
B6: ADI-38497 (IgG as tested in Table 2) (antibody, V domains shown)
VH: QLQLQESGPGLVKPSETLSLTCTVSGGSIVSSSYYWTWIRQPPGKGLEWIGSISIAGSTYYNPSLKSRVTISVDTSKNQFSLKLSSVTAADTAVYYCARDRGDQILDVWSQGTMVTVSS
VL: DIQMTQSPSSLSASVGDRVTITCRASQSISRYLNWYQQKPGKAPKLLIYAASSLQSGVPSRFSGSGSGTDFTLTISSLQPEDFATYYCQQKYFDITFGGGTKVEIK
B7: anti-P329G mutation-specific single chain antibody-rabbit Fc fusion protein (Fc fusion)
chain: EVQLVESGGGLVQPGGSLRLSCAASGFTFSRYWMNWVRQAPGKGLEWVGEITPDSSTINYAPSLKGRFTISRDNAKNSLYLQMNSLRAEDTAVYYCARPYDYGAWFASWGQGTLVTVSSGGGGSGGGGSGGGGSGGGGSQAVVTQEPSLTVSPGGTVTLTCRSSTGAVTTSNYANWVQEKPDHLFTGLIGGTNKRAPGTPARFSGSLLGGKAALTLSGAQPEDEAEYYCALWYSNHWVFGGGTKLTVLGGGGSSKPTCPPPELLGGPSVFIFPPKPKDTLMISRTPEVTCVVVDVSQDDPEVQFTWYINNEQVRTARPPLREQQFNSTIRVVSTLPIAHQDWLRGKEFKCKVHNKALPAPIEKTISKARGQPLEPKVYTMGPPREELSSRSVSLTCMINGFYPSDISVEWEKNGKAEDNYKTTPAVLDSDGSYFLYSKLSVPTSEWQRGDVFTCSVMHEALHNHYTQKSISRSPGK
notes: scFv of the P329G CAR extracellular domain fused to rabbit Fc; also called anti-PG scFv fusion protein; anti-PG scFv

Assays:
Human BCMA on cells [1] = molecular target: T1, Human BCMA on cells; assay: cell binding on human BCMA CHO-S cells
Human BCMA on cells [2] = molecular target: T1, Human BCMA on cells; assay: cell binding on H929 cells (human BCMA)
Human BCMA-IHM [3] = molecular target: T2, Human BCMA-IHM; assay: Biacore (SPR), Fab, human BCMA-IHM, monovalent
Human BCMA-IHM [4] = molecular target: T2, Human BCMA-IHM; assay: ForteBio (BLI), IgG, human BCMA-IHM, monovalent
[5] = molecular target: Cynomolgus monkey BCMA-Fc (cynomolgus monkey, UniProt A0A2K5UD97 1-53); assay: ForteBio (BLI), IgG, cynomolgus monkey BCMA-Fc, avid
Sequence of Cynomolgus monkey BCMA-Fc (A0A2K5UD97 entry or part of it): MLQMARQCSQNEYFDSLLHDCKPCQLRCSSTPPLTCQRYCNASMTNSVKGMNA

ADI-38497 WT antibody = molecular target: T3, ADI-38497 WT antibody; assay: SPR (Biacore T200), avidity format: ADI-38497 WT IgG captured on anti-Fab IgG on an HLC chip, anti-PG scFv fusion protein in the mobile phase
T3 construct: also called WT BCMA antibody
Protocol: The assay procedure was performed using a 10-fold dilution of 10×HBS-EP+(BR-1006-69, Cytiva) as the experimental buffer. […] A gradient dilution of anti-PG scFv (concentration gradient of 1.25 nM-40 nM, 2-fold dilution) was flowed over the chip surface from low to high concentration in a flow rate of 30 μl/min, with an association time of 180 s and a dissociation time of 300 s. Finally, the chip was regenerated with 10 mM glycine-HCl, pH 1.5 (BR-1003-54, Cytiva).
The data results were analyzed by Biacore T200 analysis software (version 3.1) using a 1:1 binding model.

Row | Binder | Cell Binding, FOB (Fold Over Background) (Human BCMA on cells [1]) | Cell Binding, FON (Fold Over Negative) (Human BCMA on cells [2]) | other results
1 | B1 | 11 fold | 35 fold | –
2 | B2 | – | – | Kd (Human BCMA-IHM [3]): 0.0132 nM
3 | B3 | 2 fold | 5 fold | Kd (Human BCMA-IHM [4]): 27.7 nM; Kd [5]: 5.93 nM
4 | B4 | – | – | Kd (Human BCMA-IHM [3]): 0.104 nM
5 | B5 | 4 fold | 6 fold | –
6 | B6 | 8 fold | 26 fold | –
7 | B7 | – | – | binding result (ADI-38497 WT antibody): no binding
